Substrate in data set [1]: CC(=O)N[C@@H]1[C@@H](O[C@H](C)C(=O)O)[C@H](O)[C@@H](CO)O[C@H]1O
Kind of data set: purified protein. Also noted: species or system Tannerella forsythia. As to conditions: active site, MurNAc-binding site; hydrogen bonds to G67, D95, N119, D141; lactyl ether at S133, P134, L135.

Substrate in data set [2]: CC(=O)N[C@@H]1[C@@H](O[C@H](C)C(=O)O)[C@H](O)[C@@H](CO)O[C@H]1O
Kind of data set: purified protein. In kind it is binding, Tannerella forsythia. As to conditions: active site, very similar to MurK MurNAc site; T69, R132, A133 differ.

B1: MurK (murein sugar kinase) (Tannerella forsythia 92A2) (protein)
chain: MILIADSGSTKTHWNVLDRGQVVGEIFTKGMNPFFQTPEEMGREIERTLLPQLNSNRFCEVHFFGAGCIPEKVPIVRNVLKGCLDVSSLIEVDTDMLAAAKASCGRSPGIVCIMGTGSNSCFYDGEKITANVSPLGFILGDEGSGAVLGKLLIGDLLKNQMGEELKEKFLRQYELTPANIIERVYRQPFPNRFLAGISPFLAENIEHPAIHSLVLNAFKSFLTRNVMQFDYTRYKAHFIGSVAYYYKDILEEAAAATGIRTGTIVRNPMEGLRTYYSTVAETV
notes: recombinant His6-tagged protein expressed in E. coli
For orientation: Km means the concentration of substrate that gives half-maximal velocity. The term kcat denotes the number of substrate molecules converted per active site and unit of time at saturation. As a reminder, the kcat/Km is the turnover number divided by the Michaelis constant. Regarding B1, in the data set “purified protein [1]”, the Km turned out to be 180 ± 40 µM, the kcat worked out at 42 ± 4.2 s⁻¹ and the kcat/Km was 230000 ± 56000 M⁻¹ s⁻¹.

B2: K1058 (Tannerella forsythia 92A2) (protein)
chain: MKLIAESGSTKTEWSLVEGEHLIQRVFTEGLNPFFQTRREISRSIRLGLPDSFFKRKLEQVFFYGAGCTSAEKKSVVEASLVAQFKTPAYVESDLLAAARGLFQHDSGIACILGTGSNSCFYDGHVIVKNVRAGGYILGDEGSGAALGKQFLSDVLKKLAPQVLIDDFFEKYDLTPHDVMDVVYNRPFPNRFLAEQSCFLADYLRLDYVKGLLLSNLRSFFLRNVMQYDYLNYPIRFVGSVAYNYADLLHQVGKEFGVELSVVEETPMGGLIKYHAFPPDDPES
notes: as for B1
In the case of B2, in the data set “purified protein [2]”, the Km stood at 28 ± 10 µM, the kcat is 0.18 ± 0.01 s⁻¹ and the kcat/Km came to 6400 ± 2900 M⁻¹ s⁻¹.

For the origin of these results see article PMC10465942, “N-acetylmuramic acid recognition by MurK kinase from the MurNAc auxotrophic oral pathogen Tannerella forsythia” (The Journal of Biological Chemistry, 2023).
